{"source": "paper PMC13064919", "about": "“Novel extracellular vesicle release pathway facilitated by toxic superoxide dismutase 1 oligomers” (Neurobiology of disease, 2026)", "proteins": {"B1": {"name": "Cavin-1 (natural protein, mouse (endogenous in NSC-34), UniProt O54724 1-392, looked up)", "chain": "MEDVTLHIVERPYSGFPDASSEGPEPTQGEARATEEPSGTGSDELIKSDQVNGVLVLSLLDKIIGAVDQIQLTQAQLEERQAEMEGAVQSIQGELSKLGKAHATTSNTVSKLLEKVRKVSVNVKTVRGSLERQAGQIKKLEVNEAELLRRRNFKVMIYQDEVKLPAKLSVSKSLKESEALPEKEGDELGEGERPEDDTAAIELSSDEAVEVEEVIEESRAERIKRSGLRRVDDFKKAFSKEKMEKTKVRTRENLEKTRLKTKENLEKTRHTLEKRMNKLGTRLVPVERREKLKTSRDKLRKSFTPDHVVYARSKTAVYKVPPFTFHVKKIREGEVEVLKATEMVEVGPEDDEVGAERGEATDLLRGSSPDVHTLLEITEESDAVLVDKSDSD", "notes": "Cavin-1, endogenous in NSC-34 cells, detected by western blot; source: endogenous, NSC-34 lysate (RIPA buffer)"}}, "target": "the molecule itself", "test": "reducing SDS-PAGE western blot; NSC-34 lysate, SDS-PAGE loading dye with 0.1 M DTT, 12% gel", "data": [{"protein": "B1", "values": [{"measurement": "stoichiometry N", "value": 2}]}]}
